B1: SEQ ID NO. 1068/1069: glycosyltransferase (DNA/protein SEQ ID NO) producing mogroside I from mogrol (protein, listed as Barbarea vulgaris)
chain: MVSEITHKSYPLHFVLFPFMAQGHMIPMVDIARLLAQRGVKITIVTTPHNAARFKNVLSRAIESGLPISIVQVKLPSQEAGLPEGNETLDSLVSMELMIHFLKAVNMLEEPVQKLFEEMSPQPSCIISDFCLPYTSKIAKKFNIPKILFHGMCCFCLLCMHILRKNREIVENLKSDKEHFVVPYFPDRVEFTRPQVPVATYVPGDWHEITEDMVEADKTSYGVIVNTYQELEPAYANDYKEARSGKAWTIGPVSLCNKVGADKAERGNKADIDQDECLKWLNSKEEGSVLYVCLGSICNLPLSQLKELGLGLEESQRPFIWVIRGWEKNKELHEWFSESGFEERIKDRGLLIKGWAPQMLILSHHSVGGFLTHCGWNSTLEGLTAGLPLLTWPLFADQFCNEKLAVQVLKAGVSAGVDQPMKWGEEEKIGVLVDKEGVKKAVEELMGESDDAKEIRRRAKELGELAHKAVEEGGSSHSNITSLLEDIMQLAQSNN
B2: SEQ ID NO. 1062/1063: glycosyltransferase (DNA/protein SEQ ID NO) producing mogroside I from mogrol (protein, listed as Barbarea vulgaris)
chain: MASITNHKSDPLHFVLFPFMAQGHMIPMVDIARLLAQRGLTITIVTTPHNASRFKNVLNRAIESGLPINILHVKLPYQEVGLPEGLENIDCFDSMEHMIPFFKGVNMVEESVQKLFEEMSPRPSCIISDFCLPYTSKVAKKFNIPKILFHGMCCLCLLCMHVLRKNPKILENLKSDKEHFVVPYFPDKIELTRPQVPMDTYVPGELKEFMEDLVEADKTSYGVIVNTFQELEPAYVKDYKETRSGKAWSVGPVALCNKARIDKAERGNKSDIDQDECLKWLDSKEERSVLYVCLGSICNLPLAQLKELGLGLEESTRPFIWVIRGWDKNKQLVEWFSESGFEERIKDRGLLIKGWSPQMLILSHQSVGGFLTHCGWNSTLEGITAGLPLLTWPLFADQFCNEKLVVQVLNSGVRAGVEQPMKWGEEEKIGVLVDKEGVKKAVEELMGESDEANERRRRAKELGELAHKAVEEGGSSHSNITFLLQDIMQLAQSNN
B3: SEQ ID NO. 1064/1065: glycosyltransferase (DNA/protein SEQ ID NO) producing mogroside I from mogrol (protein, listed as Barbarea vulgaris)
chain: MASAKLHQFHPSLHFVLFPFMAQGHMIPMIDIARLLAQRGVTITIVTTLHNSARFRNVLSRAIESGLPINLVHVKFPYQEAGLPEGQENIDSLDSKELTVPFFKAVNMLEEPVMKLMEEMKPRPSCLISDLCLPYTSKIAKKFNIPKIVFHGMGCFCLLCMHVLRRNLEILQNLKSDKEYFWIPNFPDRVEFTKPQVPVRINASGDWKVFLDEMVKAEETSYGVIVNTFQELEPAYVKDFQEARAGKVWSIGPVSLCNKIEADKAERGNKAAIDQDECLKWLDSKEGGSVLYVCLGSICNLPLVQLIELGLGLEESQRPFIWVIRGWEKYNELSEWISESGFEERVKDRGLLIRGWAPQVLILSHPSVGGFLTHCGWNSTLEGITSGVPLLTLPLFGDQFCNQKLIVQVLKVGVSAGVEEVMGWGEEEKIGVLVDKERVKKTVEEVMGESDDAKERRRRVKELGKLAHKAVEEGGSSHSNITLFLQDMCQLQSVGIY
B4: SEQ ID NO. 1066/1067: glycosyltransferase (DNA/protein SEQ ID NO) producing mogroside I from mogrol (protein, listed as Barbarea vulgaris)
chain: MASITNHKSDPLHFVLFPFMAQGHMIPMVDIARLLAQRGLTITIVTTPHNASRFKNVLNRAIESGLPINILHVKLPYQEVGLPEGLENIDCFDSMEHMIPFFKGVNMVEESVQKLFEEMSPRPSCIISDFCLPYTSKVAKKFNIPKILFHGMCCLCLLCMHVLRKNPKILENLKSDKEHFVVPYFPDKIELTRPQVPMDTYVPGELKEFMEDLVEADKTSYGVIVNTFQELEPAYVKDYKETRSGKAWSVGPVALCNKARIDKAERGNKSDIDQDECLKWLDSKEERSVLYVCLGSICNLPLAQLKELGLGLEESTRPFIWVIRGWDKNKQLVEWFSESGFEERIKDRGLLIKGWSPQMLILSHQSVGGFLTHCGWNSTLEGITAGLPLLTWPLFADQFCNEKLVVQVLNSGVRAGVEQPMKWGEEEKIGVLVDKEGVKKAVEELMGESDEANERRRRAKELGELAHKAVEEGGSSHSNITFLLQDIMQLAQPITEPSFLVQSWHYKKALLINLLQRTGHYQSK
B5: SEQ ID NO. 1050/1051: glycosyltransferase (DNA/protein SEQ ID NO) producing mogroside I from mogrol (protein, listed as Bacillus licheniformis)
chain: MRHKHIAIFNIPAHGHINPTLALTASLVKRGYRVTYPVTDEFVKAVEETGAEPLNYRSTLNIDPQQIRELMKNKKDMSQAPLMFIKEMEEVLPQLEALYENDKPDLILFDFMAMAGKLLAEKFGIEAVRLCSTYAQNEHFTFRSISEEFKIELTPEQEDALKNSNLPSFNFEDMFEPAKLNIVFMPRAFQPYGETFDERFSFVGPSLAKRKFQEKETPIISDSGRPVMLISLGTAFNAWPEFYHMCIEAFRDTKWQVIMAVGTTIDPESFDDIPENFSIHQRVPQLEILKKAELFITHGGMNSTMEGLNAGVPLVAVPQMPEQEITARRVEELGLGKHLQPEDTTAASLREAVSQTDGDPHVLKRIQDMQKHIKQAGGAEKAADEIEAFLAPAGVK
B6: SEQ ID NO. 1070/1071: glycosyltransferase (DNA/protein SEQ ID NO) producing mogroside I from mogrol (protein, listed as Barbarea vulgaris)
chain: MVSEITHKSYPLHFVLFPFMAQGHMIPMVDIARLLAQRGVKITIVTTPHNAARFENVLNRAIESGLPISIVQVKLPSQEAGLPEGNETFDSLVSMELLVPFFKSVNMLEEPVQKLFEEMSPQPSCIISDFCLPYTSKIAKKFNIPKILFHGMCCFCLLCMHVLRKNHEIVENLKSDKEHFVVPYFPDRVEFTRPQVPVATYVPGDWHEITGDMVEADKTSYGVIVNTCQELEPAYANDYKEARSGKAWTIGPVSLCNKVGADKAERGNKADIDQDECLKWLNSKEEGSVLYVCLGSICNLPLSQLKELGLGLEESQRPFIWVIRGWEKNKELLEWFSESGFEERIKDRGLLIKGWAPQMLILSHHSVGGFLTHCGWNSTLEGLTAGLPLLTWPLFADQFCNEKLAVQVLKAGVSAGVDQPMKWGEEEKIGVLVDKEGVKKAVEELMGESDDAKEIRRRAKELGELAHKAVEEGGSSHSNITSLLEDIMQLAQSNN
B7: SEQ ID NO. 1058/1059: glycosyltransferase (DNA/protein SEQ ID NO) producing mogroside I from mogrol (protein, listed as Barbarea vulgaris)
chain: MASETTHQFHSPLHFVLFPFMAQGHMIPMVDIARILAQRGVTITIVTTPHNAARFKNVLSRAIQSGLPINLVQAKFPSQESGSLEGHENLDLLDSLGASLTFFKATNMFEKPVEKLLKEIQPRPSCIIGDMCLPYTNRIAKNLGIPKIIFHGMCCFNLLCMHIMRQNYEFLETIDSEKEYFPIPNFPERAEFTKSQLPMITYAGEFKEFLDEVTEGDNTSYGVIVNTFEELEPAYVRDYKKVKAGKVWSIGPVSLCNKVGEDKAERGNKAAIDQDECIKWLDSKEEGSVLYVCLGSICNLPLSQLKELGLGLEESQRPFIWVIRGWEKYNELAEWISESGFKERIKERGLLIRGWSPQMLILSHPAVGGFLTHCGWNSTLEGITSGVPLLTWPLFGDQFCNEKLVVQVLKVGVRSGVEESMKWGQEENIGVLVDKEGVKKAVEEVMGESDDAKERRRRVKELGQLAHKAVEEGGSSHSNITSLLQDIRQLQSKK
B8: SEQ ID NO. 1060/1061: glycosyltransferase (DNA/protein SEQ ID NO) producing mogroside I from mogrol (protein, listed as Barbarea vulgaris)
chain: MASESCHHSHCPLHFVLFPFMAQGHMIPMVDIARLLALRGATITIVTTPHNATRFNNLLSRAIESDLSINIVHVNFPYQEAGLSEGQENVDLLESMGLMVPFLKAVNMLEEPVMKLMEEMKPRPSCLISDFCLHYTSKITKKFNIPKIVFHGMGCFCLLCMHVLRRNIEILKNLKSDKEYFLVPSFPDIVEFTKPQVPVETNASGDWKEFLEAMVEAEDTSYGVIVNTFQELEPAYVKDYKEARAGKVWSIGPVSLCNKIEADKAERGNKAAIDQEECLKWLDSKEEGSVLYVCLGSICNLPLAQLKELGIGLEESQRPFIWVIRGWEKYNELSEWMLESGFEERVKDRGLLIKGWSPQMLVLSHPSVGGFLTHCGWNSTLEGITSGVPLLTWPLFADQFCNEKLVVQVLKVGVRAGVEDPMSWGEEEKVGVLLDKEGVKKAVEELMGESDDAKERRKRVKELGELAHKAVEEGGSSHSNITLFLQDISQYKSVGTF

system: mogrol; assay: Mogroside IA and/or IE production from mogrol by glycosyltransferases expressed in S. cerevisiae, LCMS; assay type: cell-based; details: 10 μM mogrol, 2-4 days at 30° C.; identified by LCMS
Description: DNA was obtained through gene synthesis either through Genescript, IDT, or Genewiz. For some of the cucurbitadienol synthases, cDNA or genomic DNA was obtained through 10-60 day old seedlings followed by PCR amplification using specific and degenerate primers. DNA was cloned through standard molecular biology techniques or through yeast gap repair cloning (Joska et al., 2014) into one of the following overexpression vectors: pESC-Ura, pESC-His, or pESC-LEU. Gene expression was regulated by one of the following promoters; Gall, Gal10, Tef1, or GDS. Yeast transformation was performed using Zymo Yeast Transformation Kit II. Yeast strains were grown in standard media (YPD or SC) containing the appropriate selection with 2% glucose or 2% galactose for induction of heterologous genes. Yeast strains were grown in shake flask or 96 well plates at 30° ° C., 140-250 rpm. When indicated, lanosterol synthase inhibitor, Ro 48-8071 (Cayman Chemicals) was added (50 ug/ml). Yeast samples producing mogrol precursors, mogrol and mogrosides were processed through one of the following: • Cucurbitadienol and 11-OH Cucurbitadienol: Samples cell pellets were lysed (Yeast Buster) followed by ethyl acetate extraction, drying, and resuspension in methanol. • ·Mogrol and Mogrosides: Samples cell pellets were lysed in 50% ETOH, incubated at 80° C. for 30 min, filtered, dried and resuspended in MeOH for LCMS screening.
For analyzing Mogroside IIIE & Compound 1, the LCMS method included the use of Fluoro-phenyl 2.1×100 mm column, gradient 15 to 30% B for 6 minutes, at flow rate of 0.55 ml/min. For analyzing yeast production of mogroside I during enzyme screening, the LCMS method used a Phenomenex Kinetex Polar C18, 4.6×100 mm, 2.6 μm column, and a gradient of 25% to 55% B over 3 minutes, and 100% B at 3.5 minutes with a flow rate of 1.5 ml/min. Detection by ESI source negative mode single ion monitoring of 683.4 for mogroside I and 799.4 for mogroside II.
Various glycosyltransferase proteins were expressed in S. cerevisiae grown in the presence of 10 μM mogrol for 2-4 days at 30° C., 140-250 rpm in either shake flask or 96 well plates. Glycosyltransferases leading to production of Mogroside IA (glycosylation of C24-OH position) and/or Mogroside IE (glycosylation of C3-OH position) are provided in Table 6. DNA and protein sequences for the enzymes are provided in SEQ IDs 1050-1071 (see Table 1).

Question: With B1 as the molecule, how does the “Mogroside IA” value read?
Answer: 1315000

Question: And the “Mogroside IE” value?
Answer: not detected

Question: Which “Mogroside IA” value does the source give for B2 here?
Answer: 1816000

Question: And the “Mogroside IE” value?
Answer: not detected

Question: Which results are given for B3?
Answer: Mogroside IA: 76330; Mogroside IE: 13290

Question: What does the source list for B4?
Answer: Mogroside IA: 562100; Mogroside IE: not detected

Question: What does the source list for B5?
Answer: Mogroside IA: 2700609; Mogroside IE: not detected

Question: Which results are given for B6?
Answer: Mogroside IA: 1764000; Mogroside IE: not detected

Question: With B7 as the molecule, how does the “Mogroside IA” value read?
Answer: 261900

Question: What about the “Mogroside IE” value of the same molecule?
Answer: 104300

Question: Which results are given for B8?
Answer: Mogroside IA: 696200; Mogroside IE: not detected

From patent publication US12286661B2, “Methods for making high intensity sweeteners” (Firmenich Incorporated, priority 2018, dated 2025)
